Experiment [1] has as its target human immunoglobulin G preparation separated from human plasma (Gammagard, Baxter) (human). The experiment in a line: SPR (Biacore 3000), human IgG on CM5 chip, ligand flowed at 16-128 nM, 1:1 fit, 25 C. A general note: SPR reads the build-up and loss of mass on a sensor chip optically.
For experiment [2], the target named is Gamma globulin (Nichiyaku), used as a human IgG (human). The experiment in a line: affinity chromatography, dynamic binding capacity at 5% breakthrough; ligand on HiTrap NHS agarose at 5.7 mg/mL-gel.
Experiment [3] has the same target. The experiment in a line: affinity chromatography, dynamic binding capacity at 5% breakthrough; ligand on HiTrap NHS agarose at 8.8 mg/mL-gel.
The target is the same in experiment [4]. Briefly: affinity chromatography, dynamic binding capacity at 5% breakthrough; ligand on HiTrap NHS agarose at 10.9 mg/mL-gel.
The target is the same in experiment [5]. The experiment in a line: affinity chromatography, dynamic binding capacity at 5% breakthrough; ligand on cross-linked cellulose beads at 11.6 mg/mL-gel.
The target of experiment [6] is human immunoglobulin G preparation separated from human plasma (Gammagard, Baxter) (human). Briefly: SPR (Biacore 3000), human IgG on CM5 chip, as in Example 3.
The target of experiment [7] is Gamma globulin (Nichiyaku), used as a human IgG (human). Briefly: affinity chromatography, dynamic binding capacity at 5% breakthrough; ligand on HiTrap NHS agarose at 5.1 mg/mL-gel.
The target is the same in experiment [8]. Briefly: affinity chromatography, dynamic binding capacity at 5% breakthrough; ligand on HiTrap NHS agarose at 9.0 mg/mL-gel.
For experiment [9] the target is unchanged. Briefly: affinity chromatography, dynamic binding capacity at 5% breakthrough; ligand on HiTrap NHS agarose at 4.8 mg/mL-gel.
The target is the same in experiment [10]. The experiment in a line: affinity chromatography, dynamic binding capacity at 5% breakthrough; ligand on HiTrap NHS agarose at 9.4 mg/mL-gel.
For experiment [11] the target is unchanged. The experiment in a line: affinity chromatography, dynamic binding capacity at 5% breakthrough; ligand on HiTrap NHS agarose at 6.9 mg/mL-gel.
For experiment [12] the target is unchanged. The experiment in a line: affinity chromatography, dynamic binding capacity at 5% breakthrough; ligand on HiTrap NHS agarose at 13.5 mg/mL-gel.
Experiment [13] shares this target. Briefly: affinity chromatography, dynamic binding capacity at 5% breakthrough; ligand on HiTrap NHS agarose at 6.4 mg/mL-gel.
The target is the same in experiment [14]. The experiment in a line: affinity chromatography, dynamic binding capacity at 5% breakthrough; ligand on HiTrap NHS agarose at 9.5 mg/mL-gel.
Experiment [15] shares this target. Briefly: affinity chromatography, dynamic binding capacity at 5% breakthrough; ligand on HiTrap NHS agarose at 12.5 mg/mL-gel.
Experiment [16] has the same target. Briefly: affinity chromatography, dynamic binding capacity at 5% breakthrough; ligand on cross-linked cellulose beads at 11.0 mg/mL-gel.
Experiment [17] has the same target. Briefly: affinity chromatography, dynamic binding capacity at 5% breakthrough; ligand on HiTrap NHS agarose at 6.8 mg/mL-gel.
Experiment [18] has the same target. Briefly: affinity chromatography, dynamic binding capacity at 5% breakthrough; ligand on HiTrap NHS agarose at 14.1 mg/mL-gel.

C-G29A/S33E.5d (designed binder) gave a Ka in [1] of 6.3e+09 M⁻¹. Moreover, the 5% antibody dBC in experiment [2] is 38.3 mg/mL-gel; in [3], 50.3 mg/mL-gel; in [4], 54.4 mg/mL-gel; in experiment [5] it was 36.8 mg/mL-gel.
For “C-K04R/K07R/G29A/S33L/K35R/K42R/K49R/K50R/(K58R except for C-terminal).3d (designed binder)”, the Ka in experiment [6] is 2.2e+09 M⁻¹. Moreover, the 5% antibody dBC amounted to 49.1 mg/mL-gel in experiment [7] and 66.2 mg/mL-gel in experiment [8].
With “C-K04R/K07R/G29A/S33L/K35R/K42R/K49R/K50R.3d (designed binder)”, the Ka in experiment [1] worked out at 2.1e+09 M⁻¹. The results for the 5% antibody dBC in experiment [9] and in experiment [10] were 56.5 mg/mL-gel and 73.4 mg/mL-gel, respectively.
For “C-K04R/K07R/G29A/S33R/K35R/K42R/K49Q/K50R(C-terminal K58R).4d (designed binder)”, in experiment [1], the Ka was 1.1e+09 M⁻¹. The 5% antibody dBC in experiment [11] is 41.8 mg/mL-gel; in experiment [12], 62.1 mg/mL-gel.
In the case of “C-K04R/K07R/G29A/S33R/K35R/K42R/K49Q/K50R.5d (designed binder)”, the Ka in [1] is 1.5e+09 M⁻¹. Further, the 5% antibody dBC in [13] turned out to be 45.8 mg/mL-gel; in [14], 55.3 mg/mL-gel; in [15], 61.3 mg/mL-gel; in [16], 46.1 mg/mL-gel.
Take “C-K04R/K07R/G29A/S33R/K35R/K42R/K49Q/K50R.4d (designed binder)”: in experiment [1], the Ka stood at 1e+09 M⁻¹. The 5% antibody dBC in experiment [17] amounted to 42.6 mg/mL-gel; in experiment [18], 62.1 mg/mL-gel.

For the origin of these results see patent publication US20160168209A1.
